Results as given in patent US20200079833A1 (AstraZeneca / MedImmune, published 2020).
Starred links: 1 amine or outer side, 2 acyl side, 3 side chain; linkers in the order of their positions; H or OH if unused. Non-standard residues stand in square brackets, D forms with d. Groups on a side chain read outwards from the residue. Primed or numbered codes have the meaning given here. No end group written: not given here. *: point of attachment. γGlu = O=C(O)[C@H](CCC(=O)[*:2])N[*:1]; Stearoyl = CCCCCCCCCCCCCCCCCC(=O)*; αMeF = C[C@](N)(Cc1ccccc1)C(=O)O; αMeK = C[C@](N)(CCCCN)C(=O)O; Lauroyl = CCCCCCCCCCCC(=O)*; αMeS = C[C@](N)(CO)C(=O)O; PEG2′ = not defined here; Aib = CC(C)(N)C(=O)O; Ahx = NCCCCCC(=O)O

T1: glucose-dependent insulinotropic peptide (gastric inhibitory polypeptide) receptor (GIPR) (human, UniProt P48546 22-466)
T1 sequence (looked up): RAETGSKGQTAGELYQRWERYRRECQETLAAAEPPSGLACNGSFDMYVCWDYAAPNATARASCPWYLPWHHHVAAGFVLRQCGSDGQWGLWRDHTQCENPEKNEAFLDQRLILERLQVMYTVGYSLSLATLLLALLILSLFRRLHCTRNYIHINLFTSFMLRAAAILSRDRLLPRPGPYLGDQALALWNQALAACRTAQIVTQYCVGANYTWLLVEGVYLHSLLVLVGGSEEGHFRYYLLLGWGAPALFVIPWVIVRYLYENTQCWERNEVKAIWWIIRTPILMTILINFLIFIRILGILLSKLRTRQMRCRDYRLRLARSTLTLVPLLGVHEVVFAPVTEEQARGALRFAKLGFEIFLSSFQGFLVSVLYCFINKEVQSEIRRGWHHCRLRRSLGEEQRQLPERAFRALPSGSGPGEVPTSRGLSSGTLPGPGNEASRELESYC

B1: SEQ ID NO 129 (peptide)
peptide: H[Aib]EGS[αMeF]TSDV[αMeS]S[αMeF]LEGEAAK([γGlu-γGlu-Lauroyl])E[αMeF]IA[αMeF]VV[αMeK]GG-NH2
modifications: N-terminus assumed
SMILES: CCCCCCCCCCCC(=O)N[C@@H](CCC(=O)N[C@@H](CCC(=O)NCCCC[C@H](NC(=O)[C@H](C)NC(=O)[C@H](C)NC(=O)[C@H](CCC(=O)O)NC(=O)CNC(=O)[C@H](CCC(=O)O)NC(=O)[C@H](CC(C)C)NC(=O)[C@](C)(Cc1ccccc1)NC(=O)[C@H](CO)NC(=O)[C@](C)(CO)NC(=O)[C@@H](NC(=O)[C@H](CC(=O)O)NC(=O)[C@H](CO)NC(=O)[C@@H](NC(=O)[C@](C)(Cc1ccccc1)NC(=O)[C@H](CO)NC(=O)CNC(=O)[C@H](CCC(=O)O)NC(=O)C(C)(C)NC(=O)[C@@H](N)Cc1c[nH]cn1)[C@@H](C)O)C(C)C)C(=O)N[C@@H](CCC(=O)O)C(=O)N[C@@](C)(Cc1ccccc1)C(=O)N[C@H](C(=O)N[C@@H](C)C(=O)N[C@@](C)(Cc1ccccc1)C(=O)N[C@H](C(=O)N[C@H](C(=O)N[C@@](C)(CCCCN)C(=O)NCC(=O)NCC(N)=O)C(C)C)C(C)C)[C@@H](C)CC)C(=O)O)C(=O)O
B2: SEQ ID NO 132 (peptide)
peptide: H[Aib]EGS[αMeF]TSDV[αMeS]S[αMeF]LEGEAAK([Ahx-Ahx-Lauroyl])E[αMeF]IA[αMeF]VV[αMeK]GG-NH2
modifications: N-terminus assumed
SMILES: CCCCCCCCCCCC(=O)NCCCCCC(=O)NCCCCCC(=O)NCCCC[C@H](NC(=O)[C@H](C)NC(=O)[C@H](C)NC(=O)[C@H](CCC(=O)O)NC(=O)CNC(=O)[C@H](CCC(=O)O)NC(=O)[C@H](CC(C)C)NC(=O)[C@](C)(Cc1ccccc1)NC(=O)[C@H](CO)NC(=O)[C@](C)(CO)NC(=O)[C@@H](NC(=O)[C@H](CC(=O)O)NC(=O)[C@H](CO)NC(=O)[C@@H](NC(=O)[C@](C)(Cc1ccccc1)NC(=O)[C@H](CO)NC(=O)CNC(=O)[C@H](CCC(=O)O)NC(=O)C(C)(C)NC(=O)[C@@H](N)Cc1c[nH]cn1)[C@@H](C)O)C(C)C)C(=O)N[C@@H](CCC(=O)O)C(=O)N[C@@](C)(Cc1ccccc1)C(=O)N[C@H](C(=O)N[C@@H](C)C(=O)N[C@@](C)(Cc1ccccc1)C(=O)N[C@H](C(=O)N[C@H](C(=O)N[C@@](C)(CCCCN)C(=O)NCC(=O)NCC(N)=O)C(C)C)C(C)C)[C@@H](C)CC
B3: SEQ ID NO 128 (peptide)
peptide: H[Aib]EGS[αMeF]TSDV[αMeS]S[αMeF]LEGEAAK([γGlu-Lauroyl])E[αMeF]IA[αMeF]VV[αMeK]GG-NH2
modifications: N-terminus assumed
SMILES: CCCCCCCCCCCC(=O)N[C@@H](CCC(=O)NCCCC[C@H](NC(=O)[C@H](C)NC(=O)[C@H](C)NC(=O)[C@H](CCC(=O)O)NC(=O)CNC(=O)[C@H](CCC(=O)O)NC(=O)[C@H](CC(C)C)NC(=O)[C@](C)(Cc1ccccc1)NC(=O)[C@H](CO)NC(=O)[C@](C)(CO)NC(=O)[C@@H](NC(=O)[C@H](CC(=O)O)NC(=O)[C@H](CO)NC(=O)[C@@H](NC(=O)[C@](C)(Cc1ccccc1)NC(=O)[C@H](CO)NC(=O)CNC(=O)[C@H](CCC(=O)O)NC(=O)C(C)(C)NC(=O)[C@@H](N)Cc1c[nH]cn1)[C@@H](C)O)C(C)C)C(=O)N[C@@H](CCC(=O)O)C(=O)N[C@@](C)(Cc1ccccc1)C(=O)N[C@H](C(=O)N[C@@H](C)C(=O)N[C@@](C)(Cc1ccccc1)C(=O)N[C@H](C(=O)N[C@H](C(=O)N[C@@](C)(CCCCN)C(=O)NCC(=O)NCC(N)=O)C(C)C)C(C)C)[C@@H](C)CC)C(=O)O
B4: SEQ ID NO 130 (peptide)
peptide: H[Aib]EGS[αMeF]TSDV[αMeS]S[αMeF]LEGEAAK([γGlu-γGlu-γGlu-Lauroyl])E[αMeF]IA[αMeF]VV[αMeK]GG-NH2
modifications: N-terminus assumed
SMILES: CCCCCCCCCCCC(=O)N[C@@H](CCC(=O)N[C@@H](CCC(=O)N[C@@H](CCC(=O)NCCCC[C@H](NC(=O)[C@H](C)NC(=O)[C@H](C)NC(=O)[C@H](CCC(=O)O)NC(=O)CNC(=O)[C@H](CCC(=O)O)NC(=O)[C@H](CC(C)C)NC(=O)[C@](C)(Cc1ccccc1)NC(=O)[C@H](CO)NC(=O)[C@](C)(CO)NC(=O)[C@@H](NC(=O)[C@H](CC(=O)O)NC(=O)[C@H](CO)NC(=O)[C@@H](NC(=O)[C@](C)(Cc1ccccc1)NC(=O)[C@H](CO)NC(=O)CNC(=O)[C@H](CCC(=O)O)NC(=O)C(C)(C)NC(=O)[C@@H](N)Cc1c[nH]cn1)[C@@H](C)O)C(C)C)C(=O)N[C@@H](CCC(=O)O)C(=O)N[C@@](C)(Cc1ccccc1)C(=O)N[C@H](C(=O)N[C@@H](C)C(=O)N[C@@](C)(Cc1ccccc1)C(=O)N[C@H](C(=O)N[C@H](C(=O)N[C@@](C)(CCCCN)C(=O)NCC(=O)NCC(N)=O)C(C)C)C(C)C)[C@@H](C)CC)C(=O)O)C(=O)O)C(=O)O
B5: SEQ ID NO 131 (peptide)
peptide: H[Aib]EGS[αMeF]TSDV[αMeS]S[αMeF]LEGEAAK([Ahx-Lauroyl])E[αMeF]IA[αMeF]VV[αMeK]GG-NH2
modifications: N-terminus assumed
SMILES: CCCCCCCCCCCC(=O)NCCCCCC(=O)NCCCC[C@H](NC(=O)[C@H](C)NC(=O)[C@H](C)NC(=O)[C@H](CCC(=O)O)NC(=O)CNC(=O)[C@H](CCC(=O)O)NC(=O)[C@H](CC(C)C)NC(=O)[C@](C)(Cc1ccccc1)NC(=O)[C@H](CO)NC(=O)[C@](C)(CO)NC(=O)[C@@H](NC(=O)[C@H](CC(=O)O)NC(=O)[C@H](CO)NC(=O)[C@@H](NC(=O)[C@](C)(Cc1ccccc1)NC(=O)[C@H](CO)NC(=O)CNC(=O)[C@H](CCC(=O)O)NC(=O)C(C)(C)NC(=O)[C@@H](N)Cc1c[nH]cn1)[C@@H](C)O)C(C)C)C(=O)N[C@@H](CCC(=O)O)C(=O)N[C@@](C)(Cc1ccccc1)C(=O)N[C@H](C(=O)N[C@@H](C)C(=O)N[C@@](C)(Cc1ccccc1)C(=O)N[C@H](C(=O)N[C@H](C(=O)N[C@@](C)(CCCCN)C(=O)NCC(=O)NCC(N)=O)C(C)C)C(C)C)[C@@H](C)CC

Target: glucagon receptor (GCGR) (human, UniProt P47871 26-477)
Sequence (P47871 26-477): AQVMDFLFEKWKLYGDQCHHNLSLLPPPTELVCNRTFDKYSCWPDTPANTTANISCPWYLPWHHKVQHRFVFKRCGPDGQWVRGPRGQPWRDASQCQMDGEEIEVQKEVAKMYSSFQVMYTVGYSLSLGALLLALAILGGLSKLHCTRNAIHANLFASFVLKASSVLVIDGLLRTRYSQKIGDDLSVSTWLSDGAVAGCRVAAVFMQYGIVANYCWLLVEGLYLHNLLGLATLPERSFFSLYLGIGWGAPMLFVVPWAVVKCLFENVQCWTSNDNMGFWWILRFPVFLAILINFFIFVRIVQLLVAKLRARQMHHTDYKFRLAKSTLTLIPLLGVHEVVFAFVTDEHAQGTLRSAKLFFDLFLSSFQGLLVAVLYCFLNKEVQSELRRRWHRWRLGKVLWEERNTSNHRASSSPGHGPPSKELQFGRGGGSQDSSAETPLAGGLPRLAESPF
Assay: cell-based or functional assay

Point of comparison: B4, “cAMP Primary assay EC50 Gluc-R” value 26 nM. Against it:
- H[Aib]K([PEG2′-PEG2′-γGlu-Stearoyl])GS[αMeF]TSDV[αMeS]S[αMeF]LEGEAA[αMeK]E[αMeF]IA[αMeF]VV[αMeK]GG-NH2 [SEQ ID NO 126] — within 1.5-fold, 25 nM
- B1 — within 1.5-fold, 27 nM
- B2 — within 1.5-fold, 28 nM
- B3 — within 1.5-fold, 28 nM
- B5 — within 1.5-fold, 29 nM
- HK([PEG2′-PEG2′-γGlu-Stearoyl])EGS[αMeF]TSDV[αMeS]S[αMeF]LEGEAA[αMeK]E[αMeF]IA[αMeF]VV[αMeK]GG-NH2 [SEQ ID NO 127] — within 1.5-fold, 25 nM

Point of comparison: H[Aib]K([PEG2′-PEG2′-γGlu-Stearoyl])GS[αMeF]TSDV[αMeS]S[αMeF]LEGEAA[αMeK]E[αMeF]IA[αMeF]VV[αMeK]GG-NH2 [SEQ ID NO 126], “cAMP Primary assay EC50 Gluc-R (2nd)” value 25.4 nM. Against it:
- B1 — within 1.5-fold, 27 nM
- B2 — within 1.5-fold, 28 nM
- B3 — within 1.5-fold, 28 nM
- B4 — within 1.5-fold, 26 nM
- B5 — within 1.5-fold, 29 nM
- HK([PEG2′-PEG2′-γGlu-Stearoyl])EGS[αMeF]TSDV[αMeS]S[αMeF]LEGEAA[αMeK]E[αMeF]IA[αMeF]VV[αMeK]GG-NH2 [SEQ ID NO 127] — within 1.5-fold, 25.1 nM

Target: GLP-1 receptor (GLP-1R) (human, UniProt P43220 24-463)
Assay: cell-based or functional assay

Point of comparison: B5, “cAMP Mean pM GLP-1R” value 11.7 pM. Against it:
- H[Aib]K([PEG2′-PEG2′-γGlu-Stearoyl])GS[αMeF]TSDV[αMeS]S[αMeF]LEGEAA[αMeK]E[αMeF]IA[αMeF]VV[αMeK]GG-NH2 [SEQ ID NO 126] — higher, 25400 pM
- B1 — lower, 11.5 pM
- B2 — lower, 9 pM
- B3 — higher, 18.2 pM
- B4 — higher, 14.4 pM
- HK([PEG2′-PEG2′-γGlu-Stearoyl])EGS[αMeF]TSDV[αMeS]S[αMeF]LEGEAA[αMeK]E[αMeF]IA[αMeF]VV[αMeK]GG-NH2 [SEQ ID NO 127] — higher, 25100 pM

Point of comparison: B4, “cAMP Primary assay EC50 GLP-1R n1” value 0.016 nM. Against it:
- H[Aib]K([PEG2′-PEG2′-γGlu-Stearoyl])GS[αMeF]TSDV[αMeS]S[αMeF]LEGEAA[αMeK]E[αMeF]IA[αMeF]VV[αMeK]GG-NH2 [SEQ ID NO 126] — 1600-fold higher, 25 nM
- B1 — within 1.5-fold, 0.012 nM
- B2 — within 1.5-fold, 0.011 nM
- B3 — within 1.5-fold, 0.015 nM
- B5 — within 1.5-fold, 0.014 nM
- HK([PEG2′-PEG2′-γGlu-Stearoyl])EGS[αMeF]TSDV[αMeS]S[αMeF]LEGEAA[αMeK]E[αMeF]IA[αMeF]VV[αMeK]GG-NH2 [SEQ ID NO 127] — 1600-fold higher, 25 nM

Point of comparison: B1, “cAMP Primary assay EC50 GLP-1R n2” value 0.011 nM. Against it:
- H[Aib]K([PEG2′-PEG2′-γGlu-Stearoyl])GS[αMeF]TSDV[αMeS]S[αMeF]LEGEAA[αMeK]E[αMeF]IA[αMeF]VV[αMeK]GG-NH2 [SEQ ID NO 126] — 2300-fold higher, 25.4 nM
- B2 — 1.5-fold lower, 0.0071 nM
- B3 — 1.9-fold higher, 0.021 nM
- B4 — within 1.5-fold, 0.013 nM
- B5 — within 1.5-fold, 0.0099 nM
- HK([PEG2′-PEG2′-γGlu-Stearoyl])EGS[αMeF]TSDV[αMeS]S[αMeF]LEGEAA[αMeK]E[αMeF]IA[αMeF]VV[αMeK]GG-NH2 [SEQ ID NO 127] — 2300-fold higher, 25.1 nM

Target: T1, glucose-dependent insulinotropic …
Assay: cell-based or functional assay

Point of comparison: H[Aib]K([PEG2′-PEG2′-γGlu-Stearoyl])GS[αMeF]TSDV[αMeS]S[αMeF]LEGEAA[αMeK]E[αMeF]IA[αMeF]VV[αMeK]GG-NH2 [SEQ ID NO 126], “cAMP Primary assay EC50 GIP-R” value 25 nM. Against it:
- B1 — within 1.5-fold, 27 nM
- B2 — within 1.5-fold, 28 nM
- B3 — within 1.5-fold, 28 nM
- B4 — within 1.5-fold, 26 nM
- B5 — within 1.5-fold, 29 nM
- HK([PEG2′-PEG2′-γGlu-Stearoyl])EGS[αMeF]TSDV[αMeS]S[αMeF]LEGEAA[αMeK]E[αMeF]IA[αMeF]VV[αMeK]GG-NH2 [SEQ ID NO 127] — the same, 25 nM

Point of comparison: B2, “cAMP Primary assay EC50 GIP-R (2nd)” value 28 nM. Against it:
- H[Aib]K([PEG2′-PEG2′-γGlu-Stearoyl])GS[αMeF]TSDV[αMeS]S[αMeF]LEGEAA[αMeK]E[αMeF]IA[αMeF]VV[αMeK]GG-NH2 [SEQ ID NO 126] — within 1.5-fold, 25.4 nM
- B1 — within 1.5-fold, 27 nM
- B3 — the same, 28 nM
- B4 — within 1.5-fold, 26 nM
- B5 — within 1.5-fold, 29 nM
- HK([PEG2′-PEG2′-γGlu-Stearoyl])EGS[αMeF]TSDV[αMeS]S[αMeF]LEGEAA[αMeK]E[αMeF]IA[αMeF]VV[αMeK]GG-NH2 [SEQ ID NO 127] — within 1.5-fold, 25.1 nM
